The values below come from US9187525B2, “Methods of treating ophthalmic diseases using NPR-B agonists” (Shire Orphan Therapies GmbH, dated 2015).

Numbered stars: 1 amine (or outer) side, 2 acyl side, 3 side chain; on linkers, the order of the positions; unused ones are H or OH. Square brackets hold non-standard residues; d marks the D form. Ends that are not written are not given here. * marks the point of attachment. Tap(2Me) = (2S,4R)-4-(dimethylamino)pyrrolidine-2-carboxylic acid, CN(C)[C@@H]1C[C@@H](C(=O)[*:2])N([*:1])C1; Ebe = (R)-2-amino-3-(methylsulfanyl)propanoic acid, CSC[C@H](N[*:1])C(=O)[*:2]; 6072‑OH = rac-7-hydroxy-dodecanoic acid, CCCCCC(O)CCCCCC(=O)*; Pro(trans-4-NH2) = O=C([C@@H]1C[C@@H](N[*:3])CN1[*:1])[*:2]; 6071‑OH = rac-6-hydroxy-decanoic acid, CCCCC(O)CCCCC(=O)*; Pro(trans-4-guanidino) = N=C(N)N[C@H]1CN[C@H](C(=O)O)C1; Sni = (S)-nipecotic acid, O=C([C@H]1CCCN([*:1])C1)[*:2]; Hyp = O=C(O)[C@@H]1C[C@@H](O)CN1; NMeF = CN[C@@H](Cc1ccccc1)C(=O)O; 2Pal = N[C@@H](Cc1ccccn1)C(=O)O; 4Pal = N[C@@H](Cc1ccncc1)C(=O)O; NMeL = CN[C@@H](CC(C)C)C(=O)O; Lauroyl = CCCCCCCCCCCC(=O)*; Decanoyl = CCCCCCCCCC(=O)*; dOrn = NCCC[C@@H](N)C(=O)O; 3Amb = NCc1cccc(C(=O)O)c1; Octanoyl = CCCCCCCC(=O)*; FrL = not defined here; Hexanoyl = CCCCCC(=O)*; Oct = not defined here

The labels stand for the following.
T1: natriuretic peptide receptor-B (human)
T1 chain: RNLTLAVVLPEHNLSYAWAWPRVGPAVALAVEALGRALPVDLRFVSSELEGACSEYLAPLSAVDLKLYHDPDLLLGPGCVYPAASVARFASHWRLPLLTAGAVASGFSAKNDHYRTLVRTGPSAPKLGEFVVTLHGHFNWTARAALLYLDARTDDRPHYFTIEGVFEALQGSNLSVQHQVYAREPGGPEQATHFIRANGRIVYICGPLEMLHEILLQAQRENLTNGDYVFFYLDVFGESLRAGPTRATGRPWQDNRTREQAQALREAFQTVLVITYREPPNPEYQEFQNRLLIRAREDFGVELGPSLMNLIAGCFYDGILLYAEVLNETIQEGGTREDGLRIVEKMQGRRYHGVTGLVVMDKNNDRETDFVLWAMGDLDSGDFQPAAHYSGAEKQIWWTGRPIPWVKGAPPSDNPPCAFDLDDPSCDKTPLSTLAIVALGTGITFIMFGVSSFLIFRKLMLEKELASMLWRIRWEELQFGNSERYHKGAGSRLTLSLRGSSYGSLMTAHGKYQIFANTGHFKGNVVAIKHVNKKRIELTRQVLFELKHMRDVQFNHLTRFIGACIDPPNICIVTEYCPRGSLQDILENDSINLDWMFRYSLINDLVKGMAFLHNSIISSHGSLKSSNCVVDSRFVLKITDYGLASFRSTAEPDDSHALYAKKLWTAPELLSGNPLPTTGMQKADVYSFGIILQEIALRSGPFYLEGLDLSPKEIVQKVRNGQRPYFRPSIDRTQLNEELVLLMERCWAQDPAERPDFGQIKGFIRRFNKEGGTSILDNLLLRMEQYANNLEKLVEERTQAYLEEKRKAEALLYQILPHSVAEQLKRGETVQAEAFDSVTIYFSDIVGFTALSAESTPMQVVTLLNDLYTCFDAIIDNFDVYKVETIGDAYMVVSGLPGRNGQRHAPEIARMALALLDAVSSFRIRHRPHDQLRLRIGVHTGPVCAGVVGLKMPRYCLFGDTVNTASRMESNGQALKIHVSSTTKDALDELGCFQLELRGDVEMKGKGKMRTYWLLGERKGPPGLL

B1: JAL-1255 (peptide)
peptide: Octanoyl-[Sni]FRL[Hyp][NMeL]DRI-NH2
modifications: not fully specified (some residues); printed as Occ-Sni-Phe-arg-Leu-Hyp-Nml-Asp-Arg-Ile-NH2
B2: JAL-1244 (peptide)
peptide: Lauroyl-[NMeF]RL[Hyp][NMeL]DRI-NH2
modifications: not fully specified (some residues); printed as 832-Nmf-arg-Leu-Hyp-Nml-Asp-Arg-Ile-NH2
B3: JAL-1257 (peptide)
peptide: Octanoyl-[Sni][4Pal]LL[Hyp][NMeL]DRI-NH2
modifications: not fully specified (some residues); printed as Occ-Sni-Ppa-leu-Leu-Hyp-Nml-Asp-Arg-Ile-NH2
B4: JAL-1246 (peptide)
peptide: Lauroyl-FRL[Hyp]LDRI-NH2
modifications: not fully specified (some residues); printed as 832-Phe-arg-Leu-Hyp-Leu-Asp-Arg-Ile-NH2
B5: JAL-1268 (peptide)
peptide: Octanoyl-A[NMeF]KL[Hyp][NMeL]DRI-NH2
modifications: not fully specified (some residues); printed as Occ-ala-Nmf-lys-Leu-Hyp-Nml-Asp-Arg-Ile-
B6: JAL-1265 (peptide)
peptide: Octanoyl-[Sni]FXL[Hyp][NMeL]DRI-NH2
modifications: not fully specified (some residues); printed as Occ-Sni-Phe-orn-Leu-Hyp-Nml-Asp-Arg-Ile-NH2
B7: JAL-0543 (peptide)
peptide: Hexanoyl-[3Amb]FGLKLDRIS[Ebe]-NH2
SMILES: CCCCCC(=O)NCc1cccc(C(=O)N[C@@H](Cc2ccccc2)C(=O)NCC(=O)N[C@@H](CC(C)C)C(=O)N[C@@H](CCCCN)C(=O)N[C@@H](CC(C)C)C(=O)N[C@@H](CC(=O)O)C(=O)N[C@@H](CCCNC(=N)N)C(=O)N[C@H](C(=O)N[C@@H](CO)C(=O)N[C@@H](CSC)C(N)=O)[C@@H](C)CC)c1
B8: JAL-1252 (peptide)
peptide: Octanoyl-AFSL[Hyp][NMeL]DRI-NH2
modifications: not fully specified (some residues); printed as Occ-ala-Phe-ser-Leu-Hyp-Nml-Asp-Arg-Ile-NH2
B9: JAL-1262 (peptide)
peptide: Octanoyl-AFGL[Tap(2Me)]LDRI-NH2
modifications: not fully specified (some residues); printed as Occ-ala-Phe-Gly-Leu-Tap(2Me)-Leu-Asp-Arg-Ile-
B10: JAL-1254 (peptide)
peptide: Octanoyl-[Sni]FKL[Hyp][NMeL]DRI-NH2
modifications: not fully specified (some residues); printed as Occ-Sni-Phe-lys-Leu-Hyp-Nml-Asp-Arg-Ile-NH2
B11: JAL-1251 (peptide)
peptide: Octanoyl-AFLL[Pro(trans-4-NH2)]DRI-NH2
modifications: not fully specified (some residues); printed as Occ-ala-Phe-leu-Leu-Tap-Asp-Arg-Ile-NH2
B12: JAL-1253 (peptide)
peptide: Octanoyl-[Sni]FSL[Hyp][NMeL]DRI-NH2
modifications: not fully specified (some residues); printed as Occ-Sni-Phe-ser-Leu-Hyp-Nml-Asp-Arg-Ile-NH2
B13: JAL-1263 (peptide)
peptide: Octanoyl-AFRL[Tap(2Me)]LDRI-NH2
modifications: not fully specified (some residues); printed as Occ-ala-Phe-arg-Leu-Tap(2Me)-Leu-Asp-Arg-Ile-NH2
B14: JAL-1249 (peptide)
peptide: Octanoyl-AFGL[Pro(trans-4-NH2)]LDRI-NH2
modifications: not fully specified (some residues); printed as Occ-ala-Phe-Gly-Leu-Tap-Leu-Asp-Arg-Ile-NH2
B15: JAL-1261 (peptide)
peptide: Decanoyl-FRL[Hyp][NMeL]DRI-NH2
modifications: not fully specified (some residues); printed as 5587-Phe-arg-Leu-Hyp-Nml-Asp-Arg-Ile-NH2
B16: JAL-1250 (peptide)
peptide: Octanoyl-AFRL[Pro(trans-4-NH2)]LDRI-NH2
modifications: not fully specified (some residues); printed as Occ-ala-Phe-arg-Leu-Tap-Leu-Asp-Arg-Ile-NH2
B17: JAL-1260 (peptide)
peptide: {6072‑OH}-FRL[Hyp][NMeL]DRI-NH2
modifications: not fully specified (some residues); printed as (6072-OH)-Phe-arg-Leu-Hyp-Nml-Asp-Arg-Ile-NH2
B18: JAL-1256 (peptide)
peptide: Octanoyl-[Sni]XLL[Hyp][NMeL]DRI-NH2
modifications: not fully specified (some residues); printed as Occ-Sni-Mpa-leu-Leu-Hyp-Nml-Asp-Arg-Ile-
B19: JAL-1266 (peptide)
peptide: Octanoyl-[Sni][2Pal]LL[Hyp][NMeL]DRI-NH2
modifications: not fully specified (some residues); printed as Occ-Sni-Opa-leu-Leu-Hyp-Nml-Asp-Arg-Ile-
B20: JAL-1259 (peptide)
peptide: {6071‑OH}-FRL[Hyp][NMeL]DRI-NH2
modifications: not fully specified (some residues); printed as (6071-OH)-Phe-arg-Leu-Hyp-Nml-Asp-Arg-Ile-NH2
B21: JAL-1264 (peptide)
peptide: Octanoyl-AFLL[Tap(2Me)]LDRI-NH2
modifications: not fully specified (some residues); printed as Occ-ala-Phe-leu-Leu-Tap(2Me)-Leu-Asp-Arg-Ile-NH2
B22: JAL-1245 (peptide)
peptide: Lauroyl-FLL[Hyp][NMeL]DRI-NH2
modifications: not fully specified (some residues); printed as 832-Phe-leu-Leu-Hyp-Nml-Asp-Arg-Ile-NH2

The experiment addresses T1, natriuretic peptide receptor-B. Kind of experiment: cell-based or functional assay.
Take B1: the “EC50 group, cGMP in GTM-3 cells” value is at most 1 µM.

As for B2, the “EC50 group, cGMP in GTM-3 cells” value is at most 15 µM. The figure for B3 is at most 15 µM; for B4 it is at most 15 µM. The result for B5 reads at most 5 µM; that for Octanoyl-[dA]F[dR]L[Pro(trans-4-guanidino)]LDRI-NH2 [JAL-1271], at most 5 µM. For Octanoyl-[dA][NMeF][dOrn]L[Hyp][NMeL]DRI-NH2 [JAL-1269], the “EC50 group, cGMP in GTM-3 cells” value is at most 5 µM.

For the molecule B6, the “EC50 group, cGMP in GTM-3 cells” value was at most 1 µM.

As for B7, the “EC50 group, cGMP in GTM-3 cells” value was at most 15 µM. The figure for B8 is at most 1 µM; for B9 it is at most 5 µM. Regarding B10, the “EC50 group, cGMP in GTM-3 cells” value was at most 1 µM. As for B11, the “EC50 group, cGMP in GTM-3 cells” value is at most 1 µM.

Take B12: the “EC50 group, cGMP in GTM-3 cells” value was at most 5 µM. The figure for B13 is at most 5 µM.

In the case of [Oct][Sni][FrL][Hyp]LDRI-NH2 (reading uncertain; also: printed as Oct-Sni-FrL-Hyp-Leu-Asp-Arg-Ile-NH2) [JAL-1248], the “EC50 group, cGMP in GTM-3 cells” value was at most 5 µM.

In the case of B14, the “EC50 group, cGMP in GTM-3 cells” value was at most 1 µM. For the molecule B15, the “EC50 group, cGMP in GTM-3 cells” value is at most 15 µM. The result for Hexanoyl-G[dA]FGLKLDRI-NH2 [JAL-0631] reads at most 15 µM.

As to B16, the “EC50 group, cGMP in GTM-3 cells” value is at most 1 µM.

As to B17, the “EC50 group, cGMP in GTM-3 cells” value is at most 5 µM. The result for Octanoyl-[dA]FGL[Pro(trans-4-guanidino)]LDRI-NH2 [JAL-1270] reads at most 5 µM; that for B18, at most 15 µM; that for Hexanoyl-A[dA]FGLKLDRI-NH2 [JAL-0632], at most 15 µM.

On to B19, for which the “EC50 group, cGMP in GTM-3 cells” value was at most 5 µM.

For the molecule B20, the “EC50 group, cGMP in GTM-3 cells” value was at most 15 µM. The figure for B21 is at most 5 µM. The result for B22 reads at most 5 µM.
